Measured values from patent publication US20170183420.

How the values were obtained:
Experiment in all cases: cell_activity
[1] = system: ZFN 20186 (CTLA-4) (synthetic); details: pair 20186/20185, Cel-I, K562
[2] = system: ZFN 20185 (CTLA-4) (synthetic); details: pair 20186/20185, Cel-I, K562
[3] = system: ZFN 20190 (CTLA-4) (synthetic); details: pair 20190/20189, Cel-I, K562
TALEN 101620 (synthetic) = details: pair 101623/101620, K562; 10.6 with 101622, 0 with 101621
TALEN 101624 (synthetic) = details: pair 101625/101624, K562
[4] = system: ZFN 25029 (PD1) (synthetic); details: pair 12942/25029, Cel-I, K562; also active in PBMC (FIG. 2)
[5] = system: ZFN 12942 (PD1) (synthetic); details: pair 12942/25029, Cel-I, K562; also active in PBMC (FIG. 2)
TALEN 101640 (synthetic) = details: pair 101641/101640, K562
TALEN 101632 (synthetic) = details: pair 101633/101632, K562
TALEN 101641 (synthetic) = details: pair 101641/101640, K562; RVD 16 printed ND
TALEN 101633 (synthetic) = details: pair 101633/101632, K562
TALEN 101626 (synthetic) = details: pair 101627/101626, K562
TALEN 101621 (synthetic) = details: pair 101621/101618, K562; 18.1 with 101619, 0 with 101620
TALEN 101627 (synthetic) = details: pair 101627/101626, K562
TALEN 101618 (synthetic) = details: pair 101621/101618, K562; 14.7 with 101622, 6.8 with 101623
[6] = system: ZFN 20189 (CTLA-4) (synthetic); details: pair 20190/20189, Cel-I, K562

For “ACAGTGCTTCGGCAGGCTGACAGCCAGG (double strand) [CTLA-4 site 20186]”, the activity [1] was 3.3 % indels.

Sequence “ACCCGGACCTCAGTGGCTTTGCCTGGAG (double strand) [CTLA-4 site 20185]” has an activity [2] of 3.3 % indels.

“ACTACCTGGGCATAGGCAACGGAACCCA (double strand) [CTLA-4 site 20190]” was tested, and the activity [3] was 1.8 % indels.

“ATGCAGATCCCACAGGCGC (double strand) [PD1 site 101620/101624]” gave an activity (TALEN 101620 (synthetic)) of 11.6 % NHEJ and an activity (TALEN 101624 (synthetic)) of 10.1 % NHEJ.

With “CAGTCGTCTGGGCGGTGCT (double strand) [PD1 site 25029]” the activity [4] was 14.7 % NHEJ.

Sequence “CCAGGGCGCCTGTGGGATCTGCATGCCT (double strand) [PD1 site 12942]” has an activity [5] of 14.7 % NHEJ.

Sequence “CTACCTCTGTGGGGCCATCTC (double strand) [PD1 site 101632/101640]” has an activity (TALEN 101640 (synthetic)) of 23 % NHEJ and an activity (TALEN 101632 (synthetic)) of 14.7 % NHEJ.

In the case of “CTCTCTTTGATCTGCGCCTTG (double strand) [PD1 site 101633/101641]”, the activity (TALEN 101641 (synthetic)) is reported as 23 % NHEJ and the activity (TALEN 101633 (synthetic)) is reported as 14.7 % NHEJ.

“CTTCTCCCCAGCCCTGCTCGT (double strand) [PD1 site 101626]” showed an activity (TALEN 101626 (synthetic)) of 12.5 % NHEJ.

Work on “GTAGCACCGCCCAGACGACTG (double strand) [PD1 site 101621]” yielded an activity (TALEN 101621 (synthetic)) of 23.5 % NHEJ.

For “GTGAAGGTGGCGTTGTCCCCT (double strand) [PD1 site 101627]”, the activity (TALEN 101627 (synthetic)) was 12.5 % NHEJ.

Work on “GTGCTCCAGGCATGCAGATCC (double strand) [PD1 site 101618]” yielded an activity (TALEN 101618 (synthetic)) of 23.5 % NHEJ.

“TGGCGGTGGGTACATGAGCTCCACCTTG (double strand) [CTLA-4 site 20189]” was tested, and the activity [6] was 1.8 % indels.
